± gives the uncertainty stated by the source.

This series can be described thus: self-splicing fitness, log relative to wild type (ln ratio); higher = more splicing; Tetrahymena group I intron in knt gene, E. coli kanamycin selection, DiMSum; sequences stand for … in CUCUCU…GGAGGGAAAAGUUAUCAGGCAUGCACCUGGUAGCUAGUCUUUAAACCAAUAGAUUGCAUCGGUUUAAAAGGCAAGACCGUCAAAUUGCGGGAAAGGGGUCAACAGCCGUUCAGUACCAAGUCUCAGGGGAAACUUUGAGAUGGCCUUGCAAAGGGUAUGGUAAUAAGCUGACGGACAUGGUCCUAACCACGCAGCCAAGUCCUAAGUCAACAGAUCUUCUGUUGAUAUGGAUGCAGUUCACAGACUAAAUGUCGGUCGGGGAAGAUGUAUUCUUCUCAUAAGAUAUAGUCGGACCUCUCCUUAAUGGGAGCUAGCGGAUGAAGUGAUGCAACACUGGAGCCGCUGGGAACUAAUUUGUAUGCGAAAGUAUAUUGAUUAGUUUUGGAGUACUCGUGGUCG
In short, it runs like this: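 The eight P1ex-region nucleotides of an intron in the knt kanamycin-resistance gene on pET-22b(+) were all randomised and the library put into E. coli BL21(DE3). Six replicate transformations were grown overnight at 37°C or 30°C on LB agar with or without 25 μg/mL kanamycin, together with 100 μg/mL carbenicillin, 50 μM IPTG and 0.2% rhamnose. Colonies were pooled and amplicon-sequenced on an Illumina HiSeq 2500. Fitness from DiMSum is the error-weighted combination of wild-type-normalised replicate fold changes, kanamycin over none.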

Regarding CGCAAGCAAUAUUACGCAGA, the “self-splicing fitness (ln)” value by setting is: (30 °C) -2.26 ± 0.15; (37 °C) -1.78 ± 0.16.

GCUCAGCAAUAUUACGUGCA: the “self-splicing fitness (ln)” value was -1.12 ± 0.097 (30 °C) and -0.787 ± 0.1 (37 °C).

For AGUUAGCAAUAUUACGGGAG, the “self-splicing fitness (ln)” value (30 °C) was -4.34 ± 0.39 and the “self-splicing fitness (ln)” value (37 °C) was -1.65 ± 0.22.

Take UACUAGCAAUAUUACGACCC: where the note is “37 °C”, the “self-splicing fitness (ln)” value was -0.364 ± 0.39. UGUAAGCAAUAUUACGCACC: the “self-splicing fitness (ln)” value runs as follows: (30 °C) -0.744 ± 0.36; (37 °C) 0.286 ± 0.37.

With GGACAGCAAUAUUACGAACA, the “self-splicing fitness (ln)” value by setting is: (30 °C) -0.522 ± 0.18; (37 °C) -0.703 ± 0.18. UGGGAGCAAUAUUACGUAUC: the “self-splicing fitness (ln)” value by setting is: (30 °C) -3.59 ± 0.39; (37 °C) -2.56 ± 0.33. Consider CGGCAGCAAUAUUACGUGGG, for which the “self-splicing fitness (ln)” value is -3.46 ± 0.14 (30 °C) and -2.24 ± 0.11 (37 °C). On to UGCCAGCAAUAUUACGCCCA, for which the “self-splicing fitness (ln)” value is, setting by setting: (30 °C) 0.23 ± 0.099; (37 °C) -0.149 ± 0.13. In the case of GUUGAGCAAUAUUACGGUCU, the “self-splicing fitness (ln)” value runs as follows: (30 °C) -3.49 ± 0.21; (37 °C) -2.56 ± 0.18. With AAAAAGCAAUAUUACGAGCA, the “self-splicing fitness (ln)” value reads like this: (30 °C) -0.699 ± 0.076; (37 °C) -0.722 ± 0.091.

With ACUGAGCAAUAUUACGGCGA, the “self-splicing fitness (ln)” value is, setting by setting: (30 °C) -1.87 ± 0.099; (37 °C) -1.19 ± 0.11. GAUUAGCAAUAUUACGUGAC: the “self-splicing fitness (ln)” value was -2.89 ± 0.12 (30 °C) and -0.588 ± 0.094 (37 °C). Regarding UUCUAGCAAUAUUACGAGUG, the “self-splicing fitness (ln)” value reads like this: (30 °C) 0.0611 ± 0.065; (37 °C) 0.118 ± 0.094. GGUAAGCAAUAUUACGUGAC: the “self-splicing fitness (ln)” value reads like this: (30 °C) -1.4 ± 0.076; (37 °C) -1.66 ± 0.12. Consider GUCGAGCAAUAUUACGUUUA, for which the “self-splicing fitness (ln)” value by setting is: (30 °C) -2.37 ± 0.15; (37 °C) -1.87 ± 0.15.

Regarding CUUUAGCAAUAUUACGCAGA, the “self-splicing fitness (ln)” value (37 °C) is -2.09 ± 0.3.

UCGCAGCAAUAUUACGGGGU: the “self-splicing fitness (ln)” value was -3.73 ± 0.17 (30 °C) and -2.72 ± 0.18 (37 °C).

Take ACCGAGCAAUAUUACGCUGU: the “self-splicing fitness (ln)” value by setting is: (30 °C) -3.32 ± 0.17; (37 °C) -0.834 ± 0.13. As to UGGGAGCAAUAUUACGAUUA, the “self-splicing fitness (ln)” value (30 °C) is -2.17 ± 0.22 and the “self-splicing fitness (ln)” value (37 °C) is -2.1 ± 0.29.

As for ACGCAGCAAUAUUACGUUUU, the “self-splicing fitness (ln)” value runs as follows: (30 °C) -3.43 ± 0.12; (37 °C) -2.11 ± 0.11. For AGAUAGCAAUAUUACGUGCG the same measures were -1.19 ± 0.06 and -0.409 ± 0.081.

In the case of CGGAAGCAAUAUUACGGCGC, the “self-splicing fitness (ln)” value by setting is: (30 °C) -1.89 ± 0.37; (37 °C) -0.448 ± 0.28. Turning to AAAUAGCAAUAUUACGGAAC, the “self-splicing fitness (ln)” value runs as follows: (30 °C) -4.71 ± 0.45; (37 °C) -1.74 ± 0.36. Take UAGGAGCAAUAUUACGACGA: the “self-splicing fitness (ln)” value (30 °C) is -1.21 ± 0.2 and the “self-splicing fitness (ln)” value (37 °C) is -0.888 ± 0.28. Regarding GGGAAGCAAUAUUACGUUAG, the “self-splicing fitness (ln)” value runs as follows: (30 °C) -2.72 ± 0.27; (37 °C) -0.794 ± 0.24. For the sequence GUUUAGCAAUAUUACGACAG, the “self-splicing fitness (ln)” value was -3.68 ± 0.32 (30 °C) and -2.43 ± 0.34 (37 °C). Turning to AGAUAGCAAUAUUACGCACA, the “self-splicing fitness (ln)” value is -0.827 ± 0.07 (30 °C) and -0.123 ± 0.087 (37 °C).

In the case of AUUGAGCAAUAUUACGAAAU, the “self-splicing fitness (ln)” value runs as follows: (30 °C) -3.34 ± 0.12; (37 °C) -2.88 ± 0.16.

GCGCAGCAAUAUUACGAUGU: the “self-splicing fitness (ln)” value is, setting by setting: (30 °C) -1.21 ± 0.077; (37 °C) -0.279 ± 0.099. Consider UGGUAGCAAUAUUACGUGAA, for which the “self-splicing fitness (ln)” value reads like this: (30 °C) -1.96 ± 0.14; (37 °C) -1.57 ± 0.15. For ACACAGCAAUAUUACGGUCC, in that order: -1.31 ± 0.073 and -0.868 ± 0.089. Consider GGUCAGCAAUAUUACGUUCC, for which the “self-splicing fitness (ln)” value was -0.328 ± 0.24 (30 °C) and -0.643 ± 0.28 (37 °C). For the sequence AGACAGCAAUAUUACGCCCG, the “self-splicing fitness (ln)” value is -0.434 ± 0.17 (30 °C) and -0.555 ± 0.24 (37 °C). With ACGAAGCAAUAUUACGGUAC, the “self-splicing fitness (ln)” value reads like this: (30 °C) -5.02 ± 0.38; (37 °C) -2.24 ± 0.17. As to AGAAAGCAAUAUUACGUAGC, the “self-splicing fitness (ln)” value is -4.04 ± 0.22 (30 °C) and -2.5 ± 0.2 (37 °C). For CGGAAGCAAUAUUACGGUGU, in that order: -3.77 ± 0.18 and -2.1 ± 0.12. For CGAGAGCAAUAUUACGAUGA, in that order: -2.11 ± 0.28 and -1.27 ± 0.25.

The values are drawn from the supplement of paper PMC7877785.
